These results are taken from PMC9006656.

In assay [1] the target is wild-type human IgG1 Fc displayed on the CHO cell surface (human). Briefly: flow cytometry on cells; Fc variants displayed on CHO-T cells as monoclonal populations; stained with monomeric FcγRIIIa V158 on fluorescent streptavidin (50 nM in Fig. 7A) in flow buffer at pH 6.5; percent of cells binding.
For assay [2], the target named is GST-tagged human FcRn-β2m (human) (UniProt P55899).
For assay [3], the target named is hu4D5 full-length human IgG1 antibody with acid-Fc (human). As to the kind of experiment: BLI; same FAB2G experiment at pH 6.5, steady state analysis: equilibrium responses fit to a Langmuir isotherm; apparent.
For assay [4], the target named is hu4D5 full-length human IgG1 antibody with wild-type Fc (human). The description is as above.
Assay [5] has as its target hu4D5 full-length human IgG1 antibody with acid-Fc (human). As to the kind of experiment: BLI; same FAB2G experiment at pH 7.4, steady state analysis: equilibrium responses fit to a Langmuir isotherm; apparent.
For assay [6], the target named is hu4D5 full-length human IgG1 antibody with wild-type Fc (human). Described as above.
In assay [7] the target is hu4D5 full-length human IgG1 antibody with acid-Fc (human). As to the kind of experiment: BLI; antibody captured on anti-CH1 FAB2G tips; FcγRIIIa V158 (62.5-2000 nM) or F158 (156-5000 nM) in solution, pH 6.5; 1:1 model, full association and initial 5 s of dissociation; Kd = koff/kon; observed values.
Assay [8] concerns the target hu4D5 full-length human IgG1 antibody with wild-type Fc (human). The description is as above.
Assay [9] addresses hu4D5 full-length human IgG1 antibody with acid-Fc (human). Briefly: BLI; antibody captured on anti-CH1 FAB2G tips; FcγRIIIa V158 (62.5-2000 nM) or F158 (156-5000 nM) in solution, pH 7.4; 1:1 model, full association and initial 5 s of dissociation; Kd = koff/kon; observed values.
Assay [10] deals with hu4D5 full-length human IgG1 antibody with wild-type Fc (human). The description is as above.

Chain of UniProt P55899 (P55899 24-365, chain 1 of 2): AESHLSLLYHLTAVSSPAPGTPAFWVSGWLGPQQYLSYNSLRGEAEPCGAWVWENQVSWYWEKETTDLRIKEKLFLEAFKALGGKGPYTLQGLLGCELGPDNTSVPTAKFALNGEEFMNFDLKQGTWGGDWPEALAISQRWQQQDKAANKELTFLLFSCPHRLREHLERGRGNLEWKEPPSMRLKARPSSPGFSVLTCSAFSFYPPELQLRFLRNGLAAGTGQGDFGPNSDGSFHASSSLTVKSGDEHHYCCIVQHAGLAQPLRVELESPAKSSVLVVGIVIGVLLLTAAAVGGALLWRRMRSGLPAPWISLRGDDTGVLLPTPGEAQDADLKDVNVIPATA
Chain of UniProt P55899 (P61769 21-119, chain 2 of 2, further chain): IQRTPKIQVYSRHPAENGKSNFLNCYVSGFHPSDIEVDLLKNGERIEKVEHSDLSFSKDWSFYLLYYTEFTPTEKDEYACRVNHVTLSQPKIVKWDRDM
Chain of wild-type human IgG1 Fc displayed on the CHO cell surface (human) (P01857 1-350): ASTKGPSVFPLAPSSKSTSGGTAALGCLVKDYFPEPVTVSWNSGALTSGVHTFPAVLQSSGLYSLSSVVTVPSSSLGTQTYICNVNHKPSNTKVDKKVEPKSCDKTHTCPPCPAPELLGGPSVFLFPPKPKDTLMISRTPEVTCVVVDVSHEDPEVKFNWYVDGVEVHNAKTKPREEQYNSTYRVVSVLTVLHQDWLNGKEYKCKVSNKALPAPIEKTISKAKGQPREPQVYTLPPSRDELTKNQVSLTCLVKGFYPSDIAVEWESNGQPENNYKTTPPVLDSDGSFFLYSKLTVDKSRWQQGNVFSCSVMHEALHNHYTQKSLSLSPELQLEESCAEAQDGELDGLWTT

Take “biotinylated FcγRIIIa (allele V158) monomerically bound to fluorescent streptavidin (receptor)”: in assay [1], the ratio of the percent of cells binding at pH 6.5 versus the percent binding at pH 7.4 amounted to 1.

Turning to “hu4D5 full-length human IgG1 antibody with wild-type Fc”, the serum beta elimination half-life (t1/2) in homozygous Tg32 mice expressing human FcRn, 2 mg/kg intraperitoneally in assay [2] was found to be 209 h.

As to “hu4D5 human IgG1 antibody with the M252Y/S254T/T256E (YTE) substitutions”, in [2], the serum beta elimination half-life (t1/2) in homozygous Tg32 mice expressing human FcRn, increase as compared to wild-type turned out to be 1.4 fold.

Turning to “human FcγRIIIa F158, AVI and His tagged, biotinylated (from UniProt P08637 17-254) (receptor)”, the Kd in [3] came to 603 nM; in assay [4], 418 nM; in [5], 1090 nM; in [6] it was 513 nM; in assay [7] it was 538 nM; in [8], 401 nM. Further, the figures for the Kd in assay [9] and in assay [10] were 909 nM and 484 nM, respectively. The koff came to 0.177 s⁻¹ in assay [7], 0.119 s⁻¹ in [8], 0.226 s⁻¹ in [9] and 0.134 s⁻¹ in assay [10]. Further, the kon came out at 340000 M⁻¹ s⁻¹ in assay [7], 300000 M⁻¹ s⁻¹ in assay [8], 250000 M⁻¹ s⁻¹ in [9] and 280000 M⁻¹ s⁻¹ in assay [10].
